Measured values reported in US20230093708A1, “PROTEIN NANOPARTICLE DESIGN AND APPLICATION” (Duke University, priority 2020, published 2023).

Tests used:
[1] = Static and dynamic light scattering (SLS/DLS) of block co-polypeptides; type: physicochemical; details: for ρ: shape factor Rg/Rh
Experimental: Key parameters of interest are the hydrophilicity of the corona-forming block, the hydrophilicity of the core block, the overall length of the co-polypeptide and the ratio of the two blocks. Parameters of evaluation are the size, morphology, stability, and thermoresponsive behavior. All measurements were made in 140 mM NaCl, 10 mM phosphate buffer, 3 mM KCl, pH 7.4 unless otherwise specified. Size was evaluated by the hydrodynamic radios (Rh) and radius of gyration (Rg) by dynamic light scattering (DLS) and static light scattering (SLS) respectively. Rg and Rh can be combined to yield the shape factor ρ=Rg/Rh, which provides a rough indication of the morphology of the scatterer. […] For an elongated scatterer, the shape factor depends upon the aspect ratio. A combination of temperature dependent turbidity and DLS was utilized to determine the phase behavior of the block co-polypeptides. Cryogenic transmission electron microscopy (Cryo-TEM) was utilized to evaluate the morphology and provide crucial insight into the hydration of the core/corona chains. Stability of the assembled nanostructure was determined by a shift in the I1/I3 fluorescent bands of pyrene as described previously.
Static and dynamic light scattering measurements (SLS/DLS) were performed using an ALV/CGS-3 goniometer system (Langen, Germany). Samples for the ALV/CGS-3 goniometer system were prepared at a concentration of 10 μM in PBS and filtered through 0.45 μm Millex-GV filters into a 10 mm disposable borosilicate glass tube (Fischer). Simultaneous SLS and DLS measurements were obtained at 15° C. of the ELP for angles between 30°-150° at 5° increments, with each angle consisting of 3 runs for 15 s. SLS experiments were only conducted for self-assembling block co-polypeptides, since the molecular weight of a single block co-polypeptide chain is already known, and the Rg of a single chain is likely near or below the detection limit of the SLS instrument. The differential refractive index (dn/dc) was determined by measuring the refractive index at different concentrations using an Abbemat 500 refractometer (Anton Paar, Graz, Austria). DLS data were analyzed by fitting the autocorrelation function with a cumulant fit, using the built-in ALV software. Hydrodynamic radius (Rh) was plotted against angle and extrapolated to zero. SLS data were analyzed by partial Zimm plots using ALVSTAT software in order to determine the Rg and molecular weight (MW).

[2] = Cryo-TEM micelle core size, inter-core spacing and aspect ratio; type: physicochemical
Experimental: Using the data from FIG. 18, particularly the longest straight line of an individual particle and a corresponding perpendicular measurement were made to describe the aspect ratio of particles observed.
Cryo-TEM experiments were performed at Duke University's Shared Materials Instrumentation Facility (Durham, N.C.). Lacey holey carbon grids (Ted Pella, Redding, Calif.) were glow discharged in a PELCO EasiGlow Cleaning System (Ted Pella, Redding, Calif.). A 3 μL drop (10 μM RLPn-ELP80) was deposited onto the grid, blotted for 3 s with an offset of −3 mm, and vitrified in liquid ethane using the Vitrobot Mark III (FEI, Eindhoven, Netherlands). Prior to vitrification, the sample chamber was maintained at 15° C. and 100% relative humidity to prevent sample evaporation. Grids were transferred to a Gatan 626 cryoholder (Gatan, Pleasanton, Calif.) and imaged with a FEI Tecnai G2 Twin TEM (FEI, Eindhoven, Netherlands), operating at 80 keV. Feature sizes and spacing distances were measured in ImageJ by manual measurement of at least 25 particles.

B1: [S]-80-[NHQ]-40: block co-polypeptide of two UCST blocks, (GRGDSPYS)80-(GRGDNPHQ)40 (protein)
chain: GRGDSPYSGRGDSPYSGRGDSPYSGRGDSPYSGRGDSPYSGRGDSPYSGRGDSPYSGRGDSPYSGRGDSPYSGRGDSPYSGRGDSPYSGRGDSPYSGRGDSPYSGRGDSPYSGRGDSPYSGRGDSPYSGRGDSPYSGRGDSPYSGRGDSPYSGRGDSPYSGRGDSPYSGRGDSPYSGRGDSPYSGRGDSPYSGRGDSPYSGRGDSPYSGRGDSPYSGRGDSPYSGRGDSPYSGRGDSPYSGRGDSPYSGRGDSPYSGRGDSPYSGRGDSPYSGRGDSPYSGRGDSPYSGRGDSPYSGRGDSPYSGRGDSPYSGRGDSPYSGRGDSPYSGRGDSPYSGRGDSPYSGRGDSPYSGRGDSPYSGRGDSPYSGRGDSPYSGRGDSPYSGRGDSPYSGRGDSPYSGRGDSPYSGRGDSPYSGRGDSPYSGRGDSPYSGRGDSPYSGRGDSPYSGRGDSPYSGRGDSPYSGRGDSPYSGRGDSPYSGRGDSPYSGRGDSPYSGRGDSPYSGRGDSPYSGRGDSPYSGRGDSPYSGRGDSPYSGRGDSPYSGRGDSPYSGRGDSPYSGRGDSPYSGRGDSPYSGRGDSPYSGRGDSPYSGRGDSPYSGRGDSPYSGRGDSPYSGRGDSPYSGRGDSPYSGRGDSPYSGRGDNPHQGRGDNPHQGRGDNPHQGRGDNPHQGRGDNPHQGRGDNPHQGRGDNPHQGRGDNPHQGRGDNPHQGRGDNPHQGRGDNPHQGRGDNPHQGRGDNPHQGRGDNPHQGRGDNPHQGRGDNPHQGRGDNPHQGRGDNPHQGRGDNPHQGRGDNPHQGRGDNPHQGRGDNPHQGRGDNPHQGRGDNPHQGRGDNPHQGRGDNPHQGRGDNPHQGRGDNPHQGRGDNPHQGRGDNPHQGRGDNPHQGRGDNPHQGRGDNPHQGRGDNPHQGRGDNPHQGRGDNPHQGRGDNPHQGRGDNPHQGRGDNPHQGRGDNPHQ
- Rh (nm) ([1]; Table 9, UCST-UCST block co-polypeptides): 7.0 nm

B2: RLP60-ELP80: RLP-ELP block co-polypeptide, 60 core and 80 corona repeats (protein)
chain: QYPSDGRGQYPSDGRGQYPSDGRGQYPSDGRGQYPSDGRGQYPSDGRGQYPSDGRGQYPSDGRGQYPSDGRGQYPSDGRGQYPSDGRGQYPSDGRGQYPSDGRGQYPSDGRGQYPSDGRGQYPSDGRGQYPSDGRGQYPSDGRGQYPSDGRGQYPSDGRGQYPSDGRGQYPSDGRGQYPSDGRGQYPSDGRGQYPSDGRGQYPSDGRGQYPSDGRGQYPSDGRGQYPSDGRGQYPSDGRGQYPSDGRGQYPSDGRGQYPSDGRGQYPSDGRGQYPSDGRGQYPSDGRGQYPSDGRGQYPSDGRGQYPSDGRGQYPSDGRGQYPSDGRGQYPSDGRGQYPSDGRGQYPSDGRGQYPSDGRGQYPSDGRGQYPSDGRGQYPSDGRGQYPSDGRGQYPSDGRGQYPSDGRGQYPSDGRGQYPSDGRGQYPSDGRGQYPSDGRGQYPSDGRGQYPSDGRGQYPSDGRGQYPSDGRGQYPSDGRGGAGVPGGGVPGAGVPGGGVPGAGVPGGGVPGAGVPGGGVPGAGVPGGGVPGAGVPGGGVPGAGVPGGGVPGAGVPGGGVPGAGVPGGGVPGAGVPGGGVPGAGVPGGGVPGAGVPGGGVPGAGVPGGGVPGAGVPGGGVPGAGVPGGGVPGAGVPGGGVPGAGVPGGGVPGAGVPGGGVPGAGVPGGGVPGAGVPGGGVPGAGVPGGGVPGAGVPGGGVPGAGVPGGGVPGAGVPGGGVPGAGVPGGGVPGAGVPGGGVPGAGVPGGGVPGAGVPGGGVPGAGVPGGGVPGAGVPGGGVPGAGVPGGGVPGAGVPGGGVPGAGVPGGGVPGAGVPGGGVPGAGVPGGGVPGAGVPGGGVPGAGVPGGGVPGAGVPGGGVPGAGVPGGGVPGAGVPGGGVP
- core radius (cryo-TEM) [2]: ~17.5 nm
- spacing between particle cores (cryo-TEM) [2]: 29.5 nm
- Spacing (nm) ([2]; Table 2, inter-core spacing, mean ± standard deviation): 28.9 ± 5.1 nm
- Core radius (nm) ([2]; Table 2, mean ± standard deviation, 10 μM in 140 mM PBS): 17.5 ± 2.7 nm
- Nagg ([1]; Table 1, 10 μM in PBS, 15 °C): 231
- Rg(nm) ([1]; Table 1, 10 μM in PBS, 15 °C): 23.8 nm
- Rh (nm) ([1]; Table 1, 10 μM in PBS, 15 °C): 36.7 nm
- ρ ([1]; Table 1): 0.65

B3: RLP60-ELPS80: RLP-ELP block co-polypeptide with Ser guest residue in the corona (protein)
chain: QYPSDGRGQYPSDGRGQYPSDGRGQYPSDGRGQYPSDGRGQYPSDGRGQYPSDGRGQYPSDGRGQYPSDGRGQYPSDGRGQYPSDGRGQYPSDGRGQYPSDGRGQYPSDGRGQYPSDGRGQYPSDGRGQYPSDGRGQYPSDGRGQYPSDGRGQYPSDGRGQYPSDGRGQYPSDGRGQYPSDGRGQYPSDGRGQYPSDGRGQYPSDGRGQYPSDGRGQYPSDGRGQYPSDGRGQYPSDGRGQYPSDGRGQYPSDGRGQYPSDGRGQYPSDGRGQYPSDGRGQYPSDGRGQYPSDGRGQYPSDGRGQYPSDGRGQYPSDGRGQYPSDGRGQYPSDGRGQYPSDGRGQYPSDGRGQYPSDGRGQYPSDGRGQYPSDGRGQYPSDGRGQYPSDGRGQYPSDGRGQYPSDGRGQYPSDGRGQYPSDGRGQYPSDGRGQYPSDGRGQYPSDGRGQYPSDGRGQYPSDGRGQYPSDGRGQYPSDGRGGSGVPGSGVPGSGVPGSGVPGSGVPGSGVPGSGVPGSGVPGSGVPGSGVPGSGVPGSGVPGSGVPGSGVPGSGVPGSGVPGSGVPGSGVPGSGVPGSGVPGSGVPGSGVPGSGVPGSGVPGSGVPGSGVPGSGVPGSGVPGSGVPGSGVPGSGVPGSGVPGSGVPGSGVPGSGVPGSGVPGSGVPGSGVPGSGVPGSGVPGSGVPGSGVPGSGVPGSGVPGSGVPGSGVPGSGVPGSGVPGSGVPGSGVPGSGVPGSGVPGSGVPGSGVPGSGVPGSGVPGSGVPGSGVPGSGVPGSGVPGSGVPGSGVPGSGVPGSGVPGSGVPGSGVPGSGVPGSGVPGSGVPGSGVPGSGVPGSGVPGSGVPGSGVPGSGVPGSGVPGSGVPGSGVPGSGVPGSGVP
- Nagg ([1]; Table 5, 10 μM in PBS, 15 °C): 244
- Rg(nm) ([1]; Table 5, 10 μM in PBS, 15 °C): 27.5 nm
- Rh (nm) ([1]; Table 5, 10 μM in PBS, 15 °C): 43.5 nm
- ρ ([1]; Table 5): 0.6

B4: RLP20-ELP40: RLP-ELP block co-polypeptide, (QYPSDGRG)20-(VPG[A:G]G)40 (protein)
chain: QYPSDGRGQYPSDGRGQYPSDGRGQYPSDGRGQYPSDGRGQYPSDGRGQYPSDGRGQYPSDGRGQYPSDGRGQYPSDGRGQYPSDGRGQYPSDGRGQYPSDGRGQYPSDGRGQYPSDGRGQYPSDGRGQYPSDGRGQYPSDGRGQYPSDGRGQYPSDGRGGAGVPGGGVPGAGVPGGGVPGAGVPGGGVPGAGVPGGGVPGAGVPGGGVPGAGVPGGGVPGAGVPGGGVPGAGVPGGGVPGAGVPGGGVPGAGVPGGGVPGAGVPGGGVPGAGVPGGGVPGAGVPGGGVPGAGVPGGGVPGAGVPGGGVPGAGVPGGGVPGAGVPGGGVPGAGVPGGGVPGAGVPGGGVPGAGVPGGGVP
- hydrodynamic radius (Rh) [1]: 5.3 nm
- Rh (nm) ([1]; Table 3, 10 μM in PBS, 15 °C): 5.3 nm

B5: RLP60-ELPV80: RLP-ELP block co-polypeptide with Val guest residue in the corona (protein)
chain: QYPSDGRGQYPSDGRGQYPSDGRGQYPSDGRGQYPSDGRGQYPSDGRGQYPSDGRGQYPSDGRGQYPSDGRGQYPSDGRGQYPSDGRGQYPSDGRGQYPSDGRGQYPSDGRGQYPSDGRGQYPSDGRGQYPSDGRGQYPSDGRGQYPSDGRGQYPSDGRGQYPSDGRGQYPSDGRGQYPSDGRGQYPSDGRGQYPSDGRGQYPSDGRGQYPSDGRGQYPSDGRGQYPSDGRGQYPSDGRGQYPSDGRGQYPSDGRGQYPSDGRGQYPSDGRGQYPSDGRGQYPSDGRGQYPSDGRGQYPSDGRGQYPSDGRGQYPSDGRGQYPSDGRGQYPSDGRGQYPSDGRGQYPSDGRGQYPSDGRGQYPSDGRGQYPSDGRGQYPSDGRGQYPSDGRGQYPSDGRGQYPSDGRGQYPSDGRGQYPSDGRGQYPSDGRGQYPSDGRGQYPSDGRGQYPSDGRGQYPSDGRGQYPSDGRGQYPSDGRGGVGVPGVGVPGVGVPGVGVPGVGVPGVGVPGVGVPGVGVPGVGVPGVGVPGVGVPGVGVPGVGVPGVGVPGVGVPGVGVPGVGVPGVGVPGVGVPGVGVPGVGVPGVGVPGVGVPGVGVPGVGVPGVGVPGVGVPGVGVPGVGVPGVGVPGVGVPGVGVPGVGVPGVGVPGVGVPGVGVPGVGVPGVGVPGVGVPGVGVPGVGVPGVGVPGVGVPGVGVPGVGVPGVGVPGVGVPGVGVPGVGVPGVGVPGVGVPGVGVPGVGVPGVGVPGVGVPGVGVPGVGVPGVGVPGVGVPGVGVPGVGVPGVGVPGVGVPGVGVPGVGVPGVGVPGVGVPGVGVPGVGVPGVGVPGVGVPGVGVPGVGVPGVGVPGVGVPGVGVPGVGVPGVGVPGVGVPGVGVP
- Nagg ([1]; Table 5, 10 μM in PBS, 15 °C): 565
- Rg(nm) ([1]; Table 5, 10 μM in PBS, 15 °C): 41.3 nm
- Rh (nm) ([1]; Table 5, 10 μM in PBS, 15 °C): 39.4 nm
- ρ ([1]; Table 5): 1.0
